Experimental data: publication PMC3991886, “Characterization of single-stranded DNA-binding proteins from the psychrophilic bacteria Desulfotalea psychrophila, Flavobacterium psychrophilum, Psychrobacter arcticus, Psychrobacter cryohalolentis, Psychromonas ingrahamii, Psychroflexus torquis, and Photobacterium profundum” (BMC Microbiology, 2014)

What was measured:
Assay in all cases: fluorescence titration; 2-300 mM NaCl; site size 32 ± 2 nt; EMSA: 20 mM Tris-HCl pH 8.0, 100 mM NaCl, 1 mM EDTA, 25 C, 2% agarose in TAE; fluorescence titration: 20 mM Tris-HCl pH 8.0, 1 mM EDTA, 2/100/300 mM NaCl, 25 C
Settings in all cases: protein: recombinant; tags: none (stop codon in reverse primer); chain copies: 4; label: none stated
PprSSB = target: T1, PprSSB (Photobacterium profundum (LMG 19446), UniProt Q6LM83 5-187)
T1 sequence: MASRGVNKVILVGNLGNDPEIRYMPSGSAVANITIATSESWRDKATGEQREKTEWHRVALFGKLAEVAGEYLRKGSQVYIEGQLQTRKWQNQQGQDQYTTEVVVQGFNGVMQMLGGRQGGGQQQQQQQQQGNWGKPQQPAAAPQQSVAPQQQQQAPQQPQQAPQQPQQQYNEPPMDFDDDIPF

PcrSSB = target: T2, PcrSSB (Psychrobacter cryohalolentis K5 (DSM …, UniProt Q1Q9B8 1-1+=G+2-219, internal_change))
T2 sequence: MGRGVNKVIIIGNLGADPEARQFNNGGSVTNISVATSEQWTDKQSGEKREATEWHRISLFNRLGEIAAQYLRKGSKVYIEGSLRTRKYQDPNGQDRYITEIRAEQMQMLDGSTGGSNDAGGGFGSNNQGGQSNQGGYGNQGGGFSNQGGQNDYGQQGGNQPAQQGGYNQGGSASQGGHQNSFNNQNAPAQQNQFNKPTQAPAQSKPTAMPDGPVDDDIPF

PtoSSB = target: T3, PtoSSB (Psychroflexus torquis ATCC 700755 (LMG …, UniProt K4IS14 1-151))
T3 sequence: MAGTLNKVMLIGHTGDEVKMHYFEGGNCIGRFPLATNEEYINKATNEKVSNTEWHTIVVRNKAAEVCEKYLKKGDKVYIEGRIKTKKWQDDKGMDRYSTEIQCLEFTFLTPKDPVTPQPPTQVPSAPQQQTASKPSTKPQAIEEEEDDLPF

B1: (dT)76 (ssDNA)
DNA: TTTTTTTTTTTTTTTTTTTTTTTTTTTTTTTTTTTTTTTTTTTTTTTTTTTTTTTTTTTTTTTTTTTTTTTTTTTT
For B1, the binding signal (PprSSB) was 90 ± 3 % Trp fluorescence quench at saturation, the binding signal (PcrSSB) was 93 ± 3 % Trp fluorescence quench at saturation and the binding signal (PtoSSB) was 93 ± 3 % Trp fluorescence quench at saturation.
